For one substance, stoichiometry N results are on record in publication PMC10126545.

The target of the experiment is COBRA P1 HA ectodomain, insect-cell expressed, Foldon and tags removed by thrombin. As to the kind of experiment: SEC; Superdex 200 16/600 in 50 mM NaCl, 10 mM Tris pH 7.5, after thrombin digestion that removed the Foldon and tags. Background: Size exclusion chromatography separates by hydrodynamic size, large species first.

For “COBRA P1 HA ectodomain, insect-cell expressed, Foldon and tags removed by thrombin”, the stoichiometry N (commonly the number of molecules, sites or subunits per partner or assembly) is 3.
